The target of the experiment is T1, Interferon regulatory factor 3 (IRF-3) (human (endogenous in HEK293T)), Q14653.
T1 chain: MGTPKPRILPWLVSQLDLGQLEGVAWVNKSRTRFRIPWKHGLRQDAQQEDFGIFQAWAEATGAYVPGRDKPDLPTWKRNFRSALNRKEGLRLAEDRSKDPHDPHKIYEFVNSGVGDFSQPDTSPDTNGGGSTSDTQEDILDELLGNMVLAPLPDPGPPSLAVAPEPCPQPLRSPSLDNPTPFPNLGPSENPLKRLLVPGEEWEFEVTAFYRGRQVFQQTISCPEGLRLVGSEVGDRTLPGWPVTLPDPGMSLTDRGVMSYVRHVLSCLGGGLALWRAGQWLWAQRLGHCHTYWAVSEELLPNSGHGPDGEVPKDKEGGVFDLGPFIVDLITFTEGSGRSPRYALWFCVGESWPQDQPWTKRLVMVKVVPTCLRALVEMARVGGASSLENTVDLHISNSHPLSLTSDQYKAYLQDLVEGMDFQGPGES
As to the kind of experiment: native gel or EMSA; lysates of HEK293T cells transfected with HCV 3'-UTR RNA, left untreated or treated with 2.5 mM cFP, 12 h post-transfection; native PAGE and immunoblot for IRF-3 dimers. As to conditions: remark: other sources report otherwise.

B1: Interferon regulatory factor 3 (IRF-3), Q14653 1-427 (natural protein)
chain: MGTPKPRILPWLVSQLDLGQLEGVAWVNKSRTRFRIPWKHGLRQDAQQEDFGIFQAWAEATGAYVPGRDKPDLPTWKRNFRSALNRKEGLRLAEDRSKDPHDPHKIYEFVNSGVGDFSQPDTSPDTNGGGSTSDTQEDILDELLGNMVLAPLPDPGPPSLAVAPEPCPQPLRSPSLDNPTPFPNLGPSENPLKRLLVPGEEWEFEVTAFYRGRQVFQQTISCPEGLRLVGSEVGDRTLPGWPVTLPDPGMSLTDRGVMSYVRHVLSCLGGGLALWRAGQWLWAQRLGHCHTYWAVSEELLPNSGHGPDGEVPKDKEGGVFDLGPFIVDLITFTEGSGRSPRYALWFCVGESWPQDQPWTKRLVMVKVVPTCLRALVEMARVGGASSLENTVDLHISNSHPLSLTSDQYKAYLQDLVEGMDFQGPGES
B1: the stoichiometry N came to 2.

By stoichiometry N is commonly meant a count of units in the complex or per binding partner.

For the origin of these results see article PMC5913291.
